Measured values published in patent US20250188151A1, “C-JUN ANTAGONIST PEPTIDES” (The University of Bath, priority 2022, published 2025).
Where a chain is given by its changes, count along the chain named. Entries after “also recorded” stand apart in the source; their conditions may differ. Numbered stars: 1 amine (or outer) side, 2 acyl side, 3 side chain; on linkers, the order of the positions; unused ones are H or OH. Bridge positions count the residues as written; N and C are the ends. Ends that are not written are not given here. mXylylene = c1cc(C[*:1])cc(C[*:2])c1

Key:
[1] = target: T1, cJun bZIP/TRE DNA interaction (transcriptional block of TRE-mDHFR) (Homo sapiens, UniProt P05412, S292Y); test: Transcription Block Survival (TBS) assay: colony counting and growth competition in E. coli; format: cell-based; details: vs transcriptionally blocked cells (TRE-mDHFR + cJun bZIP)
T1 construct: expressed in transfected cells; host or cells: E. coli BL21 Gold carrying pES300d-TRE-mDHFR and pES230d-cJun bZIP
Text: Library Construction and TBS Assay: Library inserts were produced using PCR fill-in reactions from synthesised primers (Sigma) with degenerate codons at the desired positions to produce the correct residue options. The library was subcloned using SacI and AscI sites into the pET24a plasmid containing A-FosW. The primers used were cJun-Hinge-Lib-F: 5′-[…] TATGCC-3′ (SEQ ID NO: 49) and cJun-Hinge-Lib_R: 5′-[…] GTTC-3′ (SEQ ID NO: 50). The library DNA was transformed into NEB 10-beta electrocompetent E. coli cells. The following equation was utilised to determine library coverage by the number of single colonies: E=100×(1−1/n)^m where E is the percentage of the library missing, m is the number of colonies collected and n is the library size. […] Library DNA quality was assessed by sequencing both the DNA pool and a number of single colonies to show degenerate codons in the correct positions in the pool and to show a diversity of library members from single colonies. The pool of library DNA was transformed into BL21 Gold cells already containing pES300d-TRE-mDHFR and pES230d-cJun bZIP.
Selective pressure is applied by growing the bacteria in M9 minimal media with TMP (2-4 μM) alongside ampicillin, kanamycin and chloramphenicol to maintain the required plasmids, and IPTG (1 mM) to induce protein expression. The library transformants were first plated out onto selective agar plates (2 μM TMP) and grown at 37° C. for 72-96 h. Optimisation experiments (FIG. 5) indicate that 4 μM TMP is optimum for selection however a lower stringency is used initially before selection is increased in later steps. Colonies from this first round of selection were pooled and serially grown in liquid culture at starting OD600 of 0.05 and grown at 37° C. with shaking at 200 rpm until the OD600 reached 0.6. TMP concentration was 2 μM in the first liquid culture passage before it was increased to the optimum 4 μM in subsequent passages. […] At each passage step, a sample of the culture was plated on LB agar (supplemented with antibiotics to maintain plasmids) to select and sequence individual colonies, and a DNA pool was also sequenced. This allows the occurrence of library members to be monitored as winner sequences are selected for. Assay Validation experiments utilised a modified assay methodology whereby overnight cultures from glycerol stocks of the Control Strains (Table 2) were diluted to OD600=0.5 and 50 μL was plated on a selective M9 minimal medium agar plate.
Transcription block survival (TBS) is an intracellular assay that utilises cell survival as a readout. […] This enzyme is absolutely essential for survival since it is required for the production of purines needed for DNA and amino acid synthesis. […]. We produced a mDHFR gene (FIGS. 2 and 3) by rational design to introduce 15 TRE sites into the coding DNA sequence to allow a robust cJun transcriptional block whilst minimising alteration to the expressed protein (TRE-mDHFR). In particular, the resulting TRE-mDHFR construct was produced via two silent and thirteen conservative mutations. […] The accessible surface areas of all other amino acid residues were calculated using the ‘Accessible Surface Area and Accessibility Calculation for Protein’ tool (http://cib.cf.ocha.ac.jp/bitool/ASA/). […]

[2] = target: c-Jun bZIP (expressed in E. coli) (Homo sapiens) (UniProt P05412); test: cell_activity; details: TBS assay
cJun bZIP [3] = target: cJun bZIP (Homo sapiens, UniProt P05412, S292Y); test: CD spectra and thermal denaturation of peptide/cJun heterodimers; details: heterodimer with cJun bZIP, Example 1
Description: Circular Dichroism (CD): An Applied Photophysics Chirascan was used for CD measurements, with a 200 μL sample in a 1 mm path length CD cell. Protein/DNA samples were suspended in 150 mM potassium phosphate, 150 mM potassium fluoride and 5 mM TCEP at pH 7.4 and were equilibrated for 30 minutes before measurement. […] These scans were averaged and converted to molar residue ellipticities (MRE). Thermal denaturation experiments were performed by measuring the ellipticity at 222 nm over a 1 to 90° C. gradient at 1° C. increments. Post-melt scans at 20° C. confirmed the transitions were reversible as they overlaid within 10% of the pre-melt scan.
Circular Dichroism (CD): An Applied Photophysics Chirascan was used for CD measurements, with a 200 μL sample in a 1 mm path length CD cell. Protein/DNA samples were suspended in 150 mM potassium phosphate, 150 mM potassium fluoride and 5 mM TCEP at pH 7.4 and were equilibrated for 30minutes before measurement. […] Thermal denaturation experiments were performed by measuring the ellipticity at 222 nm over a 1 to 90° C. gradient at 1° C. increments. Post-melt scans at 20° C. confirmed the transitions were reversible as they overlaid within 10% of the pre-melt scan.
Peptide helicity was determined by quantifying the CD signal at 222 nm of peptide only samples. Thermal denaturation experiments were then used to determine the Tm of peptide-c-Jun heterodimers, which was used as an approximate measure of target engagement. […] The same 60 amino acid c-Jun bZIP construct was used for all experiments, regardless of antagonist peptide length.

cJun bZIP [4] = target: T2, cJun bZIP (human, UniProt P05412 252-308, limits assumed); test: cell-based or functional assay
T2 chain: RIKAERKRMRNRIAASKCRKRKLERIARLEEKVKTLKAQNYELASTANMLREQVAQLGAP

cJun bZIP [5] = target: T2, cJun bZIP; test: CD thermal denaturation, peptide 5 µM and c-Jun 5 µM
cJun bZIP [6] = target: T2, cJun bZIP; test: CD thermal denaturation
cJun bZIP [7] = target: T2, cJun bZIP; test: cell-based or functional assay
cJun bZIP [8] = target: T2, cJun bZIP; test: ITC (PEAQ-ITC), peptide injected into cJun, one site model
cJun bZIP [9] = target: T2, cJun bZIP; test: cell-based or functional assay
cJun bZIP [10] = target: T2, cJun bZIP
HingeW = target: T3, HingeW (synthetic construct); test: CD, DNA spectrum unchanged; details: tags: C-terminal 6xHis
T3 chain: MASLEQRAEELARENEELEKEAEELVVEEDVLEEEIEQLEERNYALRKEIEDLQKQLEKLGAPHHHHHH

A-FosW = target: T4, A-FosW (synthetic construct); test: CD, DNA spectrum unchanged; details: tags: C-terminal 6xHis
T4 chain: T3 chain with V26E, V27Q, E29L, V31E, E33Q, E34A

Molecule: MASTDTLQAETDQLEDEKYALQTEIANLLKEKEKLGAPHHHHHH [cFos LZ, human cFos leucine zipper domain construct]
- effect on TRE-mDHFR transcriptional block / colony numbers [1]: no significant increase in colony numbers; also recorded: unable to effectively dissociate the cJun bZIP from TRE DNA

Molecule: TRE-mDHFR gene (15 TRE sites)
- activity (fold reduction in colony count) ([2]; 4 uM TMP, 1 mM IPTG): 21

Molecule: MASLDELQAEIEQLEERNYALRKEIEDLQKQLEKLGAPHHHHHH [FosW]
- effect on TRE-mDHFR transcriptional block / colony numbers [1]: no significant increase in colony numbers; also recorded: unable to effectively dissociate the cJun bZIP from TRE DNA
- Tm (° C.) (CD) (cJun bZIP [3]): 54 °C

Molecule: WT-mDHFR gene
- activity (fold reduction in colony count) ([2]; presumed nonspecific plasmid binding): 1.3

B1: cJun bZIP (protein)
chain: T2 chain
- Tm (° C.) (CD): 39.8 ° C.

B2: HingeW peptide variant 23 (peptide)
peptide: Ac-EAEELVVEEDVLEEEIEQLEERNYALRKEIKDLQDQ-NH2
modifications: lactam 31-35
SMILES: CC[C@H](C)[C@H](NC(=O)[C@H](CCC(=O)O)NC(=O)[C@H](CCCCN)NC(=O)[C@H](CCCNC(=N)N)NC(=O)[C@H](CC(C)C)NC(=O)[C@H](C)NC(=O)[C@H](Cc1ccc(O)cc1)NC(=O)[C@H](CC(N)=O)NC(=O)[C@H](CCCNC(=N)N)NC(=O)[C@H](CCC(=O)O)NC(=O)[C@H](CCC(=O)O)NC(=O)[C@H](CC(C)C)NC(=O)[C@H](CCC(N)=O)NC(=O)[C@H](CCC(=O)O)NC(=O)[C@@H](NC(=O)[C@H](CCC(=O)O)NC(=O)[C@H](CCC(=O)O)NC(=O)[C@H](CCC(=O)O)NC(=O)[C@H](CC(C)C)NC(=O)[C@@H](NC(=O)[C@H](CC(=O)O)NC(=O)[C@H](CCC(=O)O)NC(=O)[C@H](CCC(=O)O)NC(=O)[C@@H](NC(=O)[C@@H](NC(=O)[C@H](CC(C)C)NC(=O)[C@H](CCC(=O)O)NC(=O)[C@H](CCC(=O)O)NC(=O)[C@H](C)NC(=O)[C@H](CCC(=O)O)NC(C)=O)C(C)C)C(C)C)C(C)C)[C@@H](C)CC)C(=O)N[C@H]1CCCCNC(=O)C[C@@H](C(=O)N[C@@H](CCC(N)=O)C(N)=O)NC(=O)[C@H](CCC(N)=O)NC(=O)[C@H](CC(C)C)NC(=O)[C@H](CC(=O)O)NC1=O
notes: Synthetic, NΔ20 CΔ7; Best single lactamised peptide; also called cyclised form of 22/23
- fold lower IC50 than 11 (cJun bZIP [4]): 1.6 fold
- Tm (° C.) of peptide-c-Jun heterodimer (cJun bZIP [5]): 65 ° C.
- heterodimer ΔTm against parent sequence 11 (cJun bZIP [6]): ~8 ° C.
- heterodimer ΔTm from lactamisation (23 against linear 22) (cJun bZIP [6]): ~9 ° C.
- IC50 CD (cJun bZIP [7]): 52.7 µM
- -TΔS (cJun bZIP [8]): 14 kcal/mol
- Kd (cJun bZIP [8]): 0.0866 µM
- Stoichiometry, n (cJun bZIP [8]): 0.97
- ΔG (cJun bZIP [8]): -9.66 kcal/mol
- ΔH (cJun bZIP [8]): -23.6 kcal/mol

B3: HingeW variant peptide 17 (peptide)
peptide: Ac-EAEELVVEEKVLEDEIEQLEERNYALRKEIEDLQKQ-NH2
modifications: lactam 10-14
SMILES: CC[C@H](C)[C@H](NC(=O)[C@H](CCC(=O)O)NC(=O)[C@H](CCCCN)NC(=O)[C@H](CCCNC(=N)N)NC(=O)[C@H](CC(C)C)NC(=O)[C@H](C)NC(=O)[C@H](Cc1ccc(O)cc1)NC(=O)[C@H](CC(N)=O)NC(=O)[C@H](CCCNC(=N)N)NC(=O)[C@H](CCC(=O)O)NC(=O)[C@H](CCC(=O)O)NC(=O)[C@H](CC(C)C)NC(=O)[C@H](CCC(N)=O)NC(=O)[C@H](CCC(=O)O)NC(=O)[C@@H](NC(=O)[C@H](CCC(=O)O)NC(=O)[C@@H]1CC(=O)NCCCC[C@H](NC(=O)[C@H](CCC(=O)O)NC(=O)[C@H](CCC(=O)O)NC(=O)[C@@H](NC(=O)[C@@H](NC(=O)[C@H](CC(C)C)NC(=O)[C@H](CCC(=O)O)NC(=O)[C@H](CCC(=O)O)NC(=O)[C@H](C)NC(=O)[C@H](CCC(=O)O)NC(C)=O)C(C)C)C(C)C)C(=O)N[C@@H](C(C)C)C(=O)N[C@@H](CC(C)C)C(=O)N[C@@H](CCC(=O)O)C(=O)N1)[C@@H](C)CC)C(=O)N[C@@H](CCC(=O)O)C(=O)N[C@@H](CC(=O)O)C(=O)N[C@@H](CC(C)C)C(=O)N[C@@H](CCC(N)=O)C(=O)N[C@@H](CCCCN)C(=O)N[C@@H](CCC(N)=O)C(N)=O
notes: Synthetic, NΔ20 CΔ7; also called cyclised form of 16/17
- Tm (° C.) of peptide-c-Jun heterodimer (cJun bZIP [5]): 64 ° C.
- increase in cJun heterodimer Tm from its linear form 16 (cJun bZIP [6]): ~9 ° C.
- IC50 CD (cJun bZIP [7]): 74.9 µM
- -TΔS (cJun bZIP [8]): 4.34 kcal/mol
- Kd (cJun bZIP [8]): 0.0696 µM
- Stoichiometry, n (cJun bZIP [8]): 1.2
- ΔG (cJun bZIP [8]): -9.77 kcal/mol
- ΔH (cJun bZIP [8]): -14.1 kcal/mol

B4: HingeW variant 0W, linear (peptide)
peptide: EAEELVVEEDVLEEEIEQLEERNYALRSEICSLQCQ-NH2
modifications: not fully specified; cysteine pairing not given here
- IC50 (µM), CD (cJun bZIP [9]): 86.7 µM

B5: HingeW variant meta DBMBW, cyclised (peptide)
peptide: EAEELVVEEDVLEEEIEQLEERNYALRAEICNLSCQ-NH2
modifications: linker 31-35 via mXylylene; not fully specified
- IC50 (µM), CD (cJun bZIP [9]): 61.5 µM

B6: HingeW variant 0W, cyclised (peptide)
peptide: EAEELVVEEDVLEEEIEQLEERNYALRSEICSLQCQ-NH2
modifications: linker 31-35 via mXylylene; not fully specified
- IC50 (µM), CD (cJun bZIP [9]): 77.6 µM

B7: HingeW variant meta DBMBW, linear (peptide)
peptide: EAEELVVEEDVLEEEIEQLEERNYALRAEICNLSCQ-NH2
modifications: not fully specified; cysteine pairing not given here
- IC50 (µM), CD (cJun bZIP [9]): 91.1 µM

B8: FosW (peptide)
peptide: MASLDELQAEIEQLEERNYALRKEIEDLQKQLEKLGAPHHHHHH
modifications: not fully specified
notes: Recombinant, capped and C-terminally 6xHis-tagged; Lacks the acidic extension
- IC50, CD antagonism of cJun/TRE DNA (peak at ~281 nM) (cJun bZIP [4]): 120 µM
- heterodimer Tm (cJun bZIP [10]): 54 ° C.

B9: TRE duplex (dsDNA)
DNA 1: GTCAGTCAGTGACTCAATCGGTCA
DNA 2: TGACCGATTGAGTCACTGACTGAC
- binding result (HingeW): no binding
- binding result (A-FosW): no binding
